Series [1] deals with the molecule itself.
The series “AUC” deals with the molecule itself. Kind of series: AUC.

The term stoichiometry N denotes a count of units in the complex or per binding partner. As a reminder, the Kd is the free concentration of one partner at which half of the binding sites on the other are occupied at equilibrium, for simple one-to-one binding.

B1: hs PCDH15 EC1-3 G16D/N369D/Q370N (domain or fragment)
chain: not shown
For B1, the “stoichiometry N” value in series [1] is 2.

B2: hs PCDH15 EC2-3 WT (domain or fragment)
chain: NSPTFKHESYYATVNELTPVGTTIFTGFSGDNGATDIDDGPNGQIEYVIQYNPDDPTSNDTFEIPLMLTGNIVLRKRLNYEDKTRYFVIIQANDRAQNLNERRTTTTTLTVDVLDGDDLGPMFLPCVLVPNTRDCRPLTYQAAIPELRTPEELNPIIVTPPIQAIDQDRNIQPPSDRPGILYSILVGTPEDYPRFFHMHPRTAELSLLEPVNRDFHQKFDLVIKAEQDNGHPLPAFAGLHIEILDENN
B2: the Kd in the series “AUC” was less than 1000 nM.

For the origin of these results see article PMC7547225 (Proceedings of the National Academy of Sciences of the …, 2020).
